{"source": "paper PMC4980223", "about": "(Immunology and cell biology, 2016)", "proteins": {"B1": {"name": "recombinant, soluble SRCR trimer (HIS6-SRCR, MARCO residues 400-520) (domain or fragment, human, UniProt Q9UEW3 400-520, looked up)", "chain": "GVKGSSGEQGVKGEKGERGENSVSVRIVGSSNRGRAEVYYSGTWGTICDDEWQNSDAIVFCRMLGYSKGRALYKVGAGTGQIWLDNVQCRGTESTLWSCTKNSWGHHDCSHEEDAGVECSV"}}, "molecular_target": "the molecule itself", "test": "SEC"}
{"protein": "B1", "values": [{"measurement": "stoichiometry N", "result": 3}]}
